Laboratory results: US20210113587A1 (ADC THERAPEUTICS, published 2021)

T1: human recombinant soluble CD25 ectodomain (human, UniProt P01589 22-240)
T1 construct: extracellular domain; Immobilised on a Biacore CM3 chip; also called sCD25 ectodomain; human sCD25 ectodomain
T1 sequence (looked up): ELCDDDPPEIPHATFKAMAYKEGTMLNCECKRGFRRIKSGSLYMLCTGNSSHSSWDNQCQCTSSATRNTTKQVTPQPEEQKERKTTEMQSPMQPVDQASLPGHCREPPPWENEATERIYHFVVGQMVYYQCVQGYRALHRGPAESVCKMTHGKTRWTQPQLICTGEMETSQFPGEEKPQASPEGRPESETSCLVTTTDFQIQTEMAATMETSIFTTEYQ

T2: human CD25 on concanavalin-A activated CD25-positive human PBMCs and CD25-expressing lymphoma cell lines (human, UniProt P01589 22-272)
T2 construct: whole, on cells; also called IL2R-α; Interleukin-2 receptor-α
T2 sequence (looked up): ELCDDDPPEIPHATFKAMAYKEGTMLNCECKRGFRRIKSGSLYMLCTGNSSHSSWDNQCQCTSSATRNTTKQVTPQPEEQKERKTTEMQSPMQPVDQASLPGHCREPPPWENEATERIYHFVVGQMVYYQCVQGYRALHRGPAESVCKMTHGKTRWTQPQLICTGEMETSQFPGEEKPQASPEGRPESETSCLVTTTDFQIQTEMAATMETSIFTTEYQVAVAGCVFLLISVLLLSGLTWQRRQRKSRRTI

B1: ADCT-301 (antibody, V domains shown)
VH: QVQLVQSGAEVKKPGSSVKVSCKASGGTFSRYIINWVRQAPGQGLEWMGRIIPILGVENYAQKFQGRVTITADKSTSTAYMELSSLRSEDTAVYYCARKDWFDYWGQGTLVTVSS
VL: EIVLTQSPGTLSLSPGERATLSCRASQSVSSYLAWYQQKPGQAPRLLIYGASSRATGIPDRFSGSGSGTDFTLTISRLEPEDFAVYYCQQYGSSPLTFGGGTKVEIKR
modifications: pyrrolobenzodiazepine (PBD) warhead attached by a cleavable linker, drug-antibody ratio 2.3±0.3; attachment residues not stated
notes: also called HuMax-TAC-E of WO2014/57119
B2: HuMax®-TAC (antibody, V domains shown)
VH: B1 VH
VL: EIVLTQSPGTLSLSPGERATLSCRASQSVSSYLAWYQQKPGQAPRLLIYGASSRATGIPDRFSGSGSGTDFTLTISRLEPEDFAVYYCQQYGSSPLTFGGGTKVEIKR
notes: also called AB12; naked antibody

Assays:
[1] = biological target: T1, human recombinant soluble CD25 …; assay: SPR (Biacore CM3 chip), sCD25 ectodomain immobilised; run 6
Method: (§1) The equilibrium dissociation constant, KD, was calculated for both molecules using BIAevaluation ® software.

[2] = biological target: T2, human CD25 on concanavalin-A activated …; assay: flow cytometry, MFI on concanavalin-A activated CD25-positive human PBMCs (CD25-PE gate)
Method: FIG. 1. […] Isotype, non-targeting-ADC-FITC was used as the non-binding ADC control. The EC₅₀ was ≈0.03 μg/ml (180 pM).

[3] = biological target: T1, human recombinant soluble CD25 …; assay: SPR (Biacore CM3 chip), sCD25 ectodomain immobilised; mean of runs
Method: as §1

[4] = biological target: T1, human recombinant soluble CD25 …; assay: SPR (Biacore CM3 chip), sCD25 ectodomain immobilised; run 4
Method: as §1

[5] = biological target: T1, human recombinant soluble CD25 …; assay: SPR (Biacore CM3 chip), sCD25 ectodomain immobilised; run 3
Method: as §1

[6] = biological target: T1, human recombinant soluble CD25 …; assay: SPR (Biacore CM3 chip), sCD25 ectodomain immobilised; run 2
Method: as §1

[7] = biological target: T1, human recombinant soluble CD25 …; assay: SPR (Biacore CM3 chip), sCD25 ectodomain immobilised; run 1
Method: as §1

[8] = biological target: T1, human recombinant soluble CD25 …; assay: SPR (Biacore CM3 chip), sCD25 ectodomain immobilised; run 5
Method: as §1

Row | Binder | Kd [1] [nM] | EC50 [2] [nM] | Kd [3] [nM] | Kd [4] [nM] | Kd [5] [nM] | Kd [6] [nM] | Kd [7] [nM] | Kd [8] [nM]
1 | B1 | 0.0244 | ~0.18 | 0.0209 | 0.0179 | 0.0207 | 0.0205 | 0.0205 | 0.0212
2 | B2 |  |  | 0.0158 | 0.0148 | 0.0191 | 0.016 | 0.0146 | 0.0144
